Laboratory results from article PMC2270346.

Biological target: mouse Wnt3a, His-tagged (mouse) (UniProt P27467)
Chain of UniProt P27467 (P27467 19-352): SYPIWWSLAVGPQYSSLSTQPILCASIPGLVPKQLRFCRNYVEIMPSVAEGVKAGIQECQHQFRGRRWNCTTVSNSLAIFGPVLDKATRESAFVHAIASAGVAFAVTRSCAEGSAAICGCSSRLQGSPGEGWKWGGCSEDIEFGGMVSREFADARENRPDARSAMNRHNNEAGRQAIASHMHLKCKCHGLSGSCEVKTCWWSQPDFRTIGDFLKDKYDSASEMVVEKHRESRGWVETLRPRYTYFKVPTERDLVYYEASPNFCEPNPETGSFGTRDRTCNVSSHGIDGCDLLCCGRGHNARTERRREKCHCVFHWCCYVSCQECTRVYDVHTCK

Substance	suppression of Wnt3a-induced beta-catenin-TCF-regulated transcription (SUPER8XTOPFLASH reporter) in HEK293T and Huh-7 cells cotransfected with Wnt3a [%]
human FZC18 module, myc-tagged (domain or fragment)	> 80
human V3Nter, V5-tagged (domain or fragment)	> 80
